What was measured:
[1] = target: pepIII peptide (PepIII portion of EGFRvIII), 13-mer …; assay: eluted supernatant mixed with pepIII-conjugated beads and free pepIII competitor in the second round, flow cytometry
[2] = target: pepIII peptide (PepIII portion of EGFRvIII), 13-mer …; assay: eluted supernatant of sample blocked with free pepIII in the first round of binding, rebound to pepIII-conjugated beads, flow cytometry
[3] = target: pepIII peptide (PepIII portion of EGFRvIII), 13-mer …; assay: eluted supernatant of unblocked sample rebound to pepIII-conjugated beads, flow cytometry

antibody level (FIG. 2, fluorescence) [1]: 2.57
antibody level (FIG. 2, fluorescence) [2]: 2.21
antibody level (FIG. 2, fluorescence) [3]: 31.2
Substance: L8A4 anti-pepIII monoclonal antibody

Reference: US20120115739A1
